{
  "source": "patent US20180185417",
  "origin": "cited, not measured here",
  "target": "CD31 (PECAM-1) (Homo sapiens) (UniProt P16284)",
  "details": "CITED reported affinity of the commercial aptamer (1.14×10−9 M), method not stated",
  "data": [
    {"substance": "CD31 aptamer (APTSCI CD31-2196BCI)", "values": [
      {"measurement": "Kd", "value": 1.14, "unit": "nM"}
    ]}
  ]
}
